Assay results from publication PMC12102759 (2025).

B1: CBL peptide 540-555 (E3 ubiquitin-protein ligase CBL), 16-mer library wild type / YES SH3 (YES1 SH3 domain, residues 90-152) (parent complex)
chain 1: RDLPPPPPPDRPYSVG
chain 2: not shown
B2: ATXN2 peptide 913-928 (Ataxin-2), 16-mer library wild type / PABPC1 PABC (PABPC1 PABC domain, residues 544-623) (parent complex)
chain 1: TLNPNAKEFNPRSFSQ
chain 2: PLTASMLASAPPQEQKQMLGERLFPLIQAMHPTLAGKITGMLLEIDNSELLHMLESPESLRSKVDEAVAVLQAHQAKEAA

Variants of: B1
Test: proteomic peptide phage display deep mutational scan (ProP-PD DMS): M13 P8 16-mer library selected against immobilised GST-tagged bait for four days (rounds), NGS of the eluted pools per day and pseudo-replica; bait immobilised on MaxiSorp plates (10 µg), library pre-cleared on GST, 2 h binding at 4 °C, five washes; one round per day, days 1-4; value from days 2 and 3

Row | Variant | screen value
1 | chain 1 P9T | 0.000876 average fractional NGS count over selection days 2 and 3 (reads of this peptide / all reads for the bait, averaged over …
2 | chain 1 P9F | 0.000295 average fractional NGS count over selection days 2 and 3 (reads of this peptide / all reads for the bait, averaged over …
3 | chain 1 P9I | 0.000523 average fractional NGS count over selection days 2 and 3 (reads of this peptide / all reads for the bait, averaged over …
4 | chain 1 R1V | 0.000334 average fractional NGS count over selection days 2 and 3 (reads of this peptide / all reads for the bait, averaged over …
5 | chain 1 P4V | 0.000427 average fractional NGS count over selection days 2 and 3 (reads of this peptide / all reads for the bait, averaged over …
6 | chain 1 P4A | 0.000327 average fractional NGS count over selection days 2 and 3 (reads of this peptide / all reads for the bait, averaged over …
7 | chain 1 L3V | 0.00179 average fractional NGS count over selection days 2 and 3 (reads of this peptide / all reads for the bait, averaged over …
8 | chain 1 L3G | 7.18e-05 average fractional NGS count over selection days 2 and 3 (reads of this peptide / all reads for the bait, averaged over …
9 | chain 1 V15Y | 0.00192 average fractional NGS count over selection days 2 and 3 (reads of this peptide / all reads for the bait, averaged over …
10 | chain 1 V15F | 0.00636 average fractional NGS count over selection days 2 and 3 (reads of this peptide / all reads for the bait, averaged over …
11 | chain 1 V15R | 7.8e-05 average fractional NGS count over selection days 2 and 3 (reads of this peptide / all reads for the bait, averaged over …
12 | chain 1 R11Y | 0.000176 average fractional NGS count over selection days 2 and 3 (reads of this peptide / all reads for the bait, averaged over …
13 | chain 1 R11I | 0.000246 average fractional NGS count over selection days 2 and 3 (reads of this peptide / all reads for the bait, averaged over …
14 | chain 1 Y13H | 0.000183 average fractional NGS count over selection days 2 and 3 (reads of this peptide / all reads for the bait, averaged over …
15 | chain 1 Y13S | 0.00123 average fractional NGS count over selection days 2 and 3 (reads of this peptide / all reads for the bait, averaged over …
16 | chain 1 Y13N | 0.00025 average fractional NGS count over selection days 2 and 3 (reads of this peptide / all reads for the bait, averaged over …
17 | chain 1 P7D | 0.00038 average fractional NGS count over selection days 2 and 3 (reads of this peptide / all reads for the bait, averaged over …
18 | chain 1 P7V | 0.00515 average fractional NGS count over selection days 2 and 3 (reads of this peptide / all reads for the bait, averaged over …
19 | chain 1 D10Y | 0.000449 average fractional NGS count over selection days 2 and 3 (reads of this peptide / all reads for the bait, averaged over …
20 | chain 1 P12D | 0.00117 average fractional NGS count over selection days 2 and 3 (reads of this peptide / all reads for the bait, averaged over …
21 | chain 1 P12W | 0.00363 average fractional NGS count over selection days 2 and 3 (reads of this peptide / all reads for the bait, averaged over …
22 | chain 1 P12S | 0.00406 average fractional NGS count over selection days 2 and 3 (reads of this peptide / all reads for the bait, averaged over …
23 | chain 1 D2R | 0.000105 average fractional NGS count over selection days 2 and 3 (reads of this peptide / all reads for the bait, averaged over …
24 | chain 1 D2G | 0.00344 average fractional NGS count over selection days 2 and 3 (reads of this peptide / all reads for the bait, averaged over …
25 | chain 1 D2N | 0.00453 average fractional NGS count over selection days 2 and 3 (reads of this peptide / all reads for the bait, averaged over …
26 | chain 1 P5D | 0.00109 average fractional NGS count over selection days 2 and 3 (reads of this peptide / all reads for the bait, averaged over …
27 | chain 1 P6R | 0.00111 average fractional NGS count over selection days 2 and 3 (reads of this peptide / all reads for the bait, averaged over …
28 | chain 1 P6L | 0.000189 average fractional NGS count over selection days 2 and 3 (reads of this peptide / all reads for the bait, averaged over …
29 | chain 1 P6K | 0.00059 average fractional NGS count over selection days 2 and 3 (reads of this peptide / all reads for the bait, averaged over …
30 | chain 1 P8T | 0.0233 average fractional NGS count over selection days 2 and 3 (reads of this peptide / all reads for the bait, averaged over …

Variants of: B2
Test: as above

Row | Variant | screen value
31 | chain 1 TWNPNAKEFNPRSFSQ | 0.000443 average fractional NGS count over selection days 2 and 3 (reads of this peptide / all reads for the bait, averaged over …
32 | chain 1 TYNPNAKEFNPRSFSQ | 0.000336 average fractional NGS count over selection days 2 and 3 (reads of this peptide / all reads for the bait, averaged over …
33 | chain 1 TMNPNAKEFNPRSFSQ | 0.000384 average fractional NGS count over selection days 2 and 3 (reads of this peptide / all reads for the bait, averaged over …
34 | chain 1 TLNPNVKEFNPRSFSQ | 0.00065 average fractional NGS count over selection days 2 and 3 (reads of this peptide / all reads for the bait, averaged over …
35 | chain 1 TLNPNTKEFNPRSFSQ | 0.000787 average fractional NGS count over selection days 2 and 3 (reads of this peptide / all reads for the bait, averaged over …
36 | chain 1 TLSPNAKEFNPRSFSQ | 0.0019 average fractional NGS count over selection days 2 and 3 (reads of this peptide / all reads for the bait, averaged over …
37 | chain 1 TLNPNAKEFNPRSLSQ | 0.00171 average fractional NGS count over selection days 2 and 3 (reads of this peptide / all reads for the bait, averaged over …
38 | chain 1 TLNPNAKEFNPRSYSQ | 0.00139 average fractional NGS count over selection days 2 and 3 (reads of this peptide / all reads for the bait, averaged over …
39 | chain 1 TLNPNAKEFNPRSISQ | 0.000362 average fractional NGS count over selection days 2 and 3 (reads of this peptide / all reads for the bait, averaged over …
40 | chain 1 TLNPNAKEFNPRSNSQ | 0.00127 average fractional NGS count over selection days 2 and 3 (reads of this peptide / all reads for the bait, averaged over …
41 | chain 1 TLNPNAKEFNPRSHSQ | 0.00184 average fractional NGS count over selection days 2 and 3 (reads of this peptide / all reads for the bait, averaged over …
42 | chain 1 TLNPNAKEFNPRSASQ | 0.000336 average fractional NGS count over selection days 2 and 3 (reads of this peptide / all reads for the bait, averaged over …
43 | chain 1 TLNPNAKEFNPRSVSQ | 0.00125 average fractional NGS count over selection days 2 and 3 (reads of this peptide / all reads for the bait, averaged over …
44 | chain 1 TLNPFAKEFNPRSFSQ | 0.000799 average fractional NGS count over selection days 2 and 3 (reads of this peptide / all reads for the bait, averaged over …
45 | chain 1 TLNPHAKEFNPRSFSQ | 0.00507 average fractional NGS count over selection days 2 and 3 (reads of this peptide / all reads for the bait, averaged over …
46 | chain 1 TLNPLAKEFNPRSFSQ | 0.00771 average fractional NGS count over selection days 2 and 3 (reads of this peptide / all reads for the bait, averaged over …
47 | chain 1 TLNPMAKEFNPRSFSQ | 0.0888 average fractional NGS count over selection days 2 and 3 (reads of this peptide / all reads for the bait, averaged over …
48 | chain 1 TLNPGAKEFNPRSFSQ | 0.00173 average fractional NGS count over selection days 2 and 3 (reads of this peptide / all reads for the bait, averaged over …
49 | chain 1 TLNPQAKEFNPRSFSQ | 0.00052 average fractional NGS count over selection days 2 and 3 (reads of this peptide / all reads for the bait, averaged over …
50 | chain 1 TLNPVAKEFNPRSFSQ | 0.0117 average fractional NGS count over selection days 2 and 3 (reads of this peptide / all reads for the bait, averaged over …
51 | chain 1 TLNPIAKEFNPRSFSQ | 0.00126 average fractional NGS count over selection days 2 and 3 (reads of this peptide / all reads for the bait, averaged over …
52 | chain 1 TLNPKAKEFNPRSFSQ | 0.00157 average fractional NGS count over selection days 2 and 3 (reads of this peptide / all reads for the bait, averaged over …
53 | chain 1 TLNPTAKEFNPRSFSQ | 0.00242 average fractional NGS count over selection days 2 and 3 (reads of this peptide / all reads for the bait, averaged over …
54 | chain 1 YLNPNAKEFNPRSFSQ | 0.0102 average fractional NGS count over selection days 2 and 3 (reads of this peptide / all reads for the bait, averaged over …
55 | chain 1 MLNPNAKEFNPRSFSQ | 0.000194 average fractional NGS count over selection days 2 and 3 (reads of this peptide / all reads for the bait, averaged over …
56 | chain 1 HLNPNAKEFNPRSFSQ | 0.000542 average fractional NGS count over selection days 2 and 3 (reads of this peptide / all reads for the bait, averaged over …
57 | chain 1 KLNPNAKEFNPRSFSQ | 0.00118 average fractional NGS count over selection days 2 and 3 (reads of this peptide / all reads for the bait, averaged over …
58 | chain 1 ALNPNAKEFNPRSFSQ | 0.00105 average fractional NGS count over selection days 2 and 3 (reads of this peptide / all reads for the bait, averaged over …
59 | chain 1 GLNPNAKEFNPRSFSQ | 0.00313 average fractional NGS count over selection days 2 and 3 (reads of this peptide / all reads for the bait, averaged over …
